Experimental data reported in patent US20200299408A1.

What follows are binders tested against commercial CD3ε (assay: binding affinity on commercial CD3ε (Creative Biomart CD3E-2194H); method not given).
commercial CD3ε, sequence (P07766 22-126): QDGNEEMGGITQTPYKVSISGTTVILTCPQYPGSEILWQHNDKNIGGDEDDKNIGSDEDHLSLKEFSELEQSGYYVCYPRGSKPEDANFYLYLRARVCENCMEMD

Binder | Kd [nM]
murine 13A3 (antibody, V domains shown) VH: EVQLQQSGPELVKPGASVRISCKASGYTFTSYYIHWMKQRPGQGLEWIGWIYPGNVNTKYNEKFKGKATLTADNSSSTANMQLSSLTSEDSAVYFCARNHDYYFDYWGQGTTLTVSS VL: DIVLTQSPSSLAVSAGEKVTMSCKSSQSLLNSRTRKNYLAWYQQKPGQSPKLLIYWASTRESGVPDRFTGSGSGTDFTLTISSVQAEDLAVYYCKQSYILRTFGGGTKLEIK | 0.7
murine 30A1 (antibody, V domains shown) VH: QVQLKESGPGLVAPSQSLSITCTVSGFSLTNYAIHWVRQPPGKGLDWLGVIWAGGNTKYNSALMSRLSFSKDNSKSQVFLEINSLQTDDTAMYYCAREDSSGYVALDYWGQGTSVTVSS VL: NIVMTQSPSSLAVSAGEKVTMSCKSSQSLLSGRTRKNYLAWYQQKPGQSPKLLIYWASTRESGVPDRFTGSGSGTDFTLTISSVQAEDLAVYYCKQSYYLLTFGAGTKLELK | 0.4
humanized 30A1: VH3 graft + A24V / K4 graft (antibody, V domains shown) VH: EVQLVESGGGLVQPGGSLRLSCAVSGFSLTNYAIHWVRQAPGKGLEWVGVIWAGGNTKYNSALMSRFTISRDNSKNTLYLQMNSLRAEDTAVYYCAREDSSGYVALDYWGQGTLVTVSS VL: DIVMTQSPDSLAVSLGERATINCKSSQSLLSGRTRKNYLAWYQQKPGQPPKLLIYWASTRESGVPDRFSGSGSGTDFTLTISSLQAEDVAVYYCKQSYYLLTFGQGTKVEIK | 1.7

What follows are binders tested against CD3 antigen of Figures 3B and 3C (not named) (assay: kinetic table of IgGs; method and antigen not stated).

Binder | Kd [nM] | koff [s⁻¹] | kon [M⁻¹ s⁻¹]
14C7 (antibody, V domains shown) VH: EVQLQQSGPELVKPGTSVKISCKASGFSFTNYYIHWMKQRPGQGLEWIGWIYPGSDNTKFNDKFKGKATLTADTSSTTAYMQLSSLTSEDSAVYYCARDSITNYYFDYWGQGTTLTVSS VL: DVVMTQTPSSLAVSTGEKVTMTCKSSQSLLNIRTRKNCLAWYQQKPGQSPKLLIFWASTRYSGVPDRFTGSGSGTDFTLTIRSVQPEDLAVYYCTQSYTLRTFGGGTKLEIK | 0.228 | 3.79e-05 | 166000
18F12 (antibody, V domains shown) VH: QVQLQQSGPELVKPGASVKISCKASGYSFTNYYMHWVKQRPGQGLEWIGWISPGSGSIKYNEKFKGKATLTADTSSSTAYMQLSSLTSEDSAVYYCARDGYSLYFFDFWGQGTTLTVSS VL: DIVMTQSPSSLAVSAGEKVTMTCKSSQSLLNSRTRKNYLAWYQQKPGQSPKLLIYWASTRESGVPDRFTGSGSGTDFTLTISSVQAEDLAVYYCKQSFILRTFGGGTKLELK | 0.119 | 1.59e-05 | 134000
27H5-1 (antibody, V domains shown) VH: QVQLQQSGPELVKPGTSVKISCKTSGYSFINYYTHWVKQRPGQGLEWIGWIYPGNGNIKYNEKFMGKATLTADTSSTTAHMHLSSLVSEDSAVYYCARDSYGSYYFDYWGQGTTLTVSS VL: DIVMTQSPSSLAVSVGEKVTMSCKSSQSLLNSRTRKNYLAWYQQKPGQSPKLLIYWASTRESGVPVRFTGSGSGTDFTLTISSVQAEDLAVYYCTQSFILRTFGGGTKLEIK | 0.492 | 0.000115 | 234000
muSP34 (antibody, V domains shown) VH: EVQLVESGGGLVQPKGSLKLSCAASGFTFNTYAMNWVRQAPGKGLEWVARIRSKYNNYATYYADSVKDRFTISRDDSQSILYLQMNNLKTEDTAMYYCVRHGNFGNSYVSWFAYWGQGTLVTVSS VL: QAVVTQESALTTSPGETVTLTCRSSTGAVTTSNYANWVQEKPDHLFTGLIGGTNKRAPGVPARFSGSLIGDKAALTITGAQTEDEAIYFCALWYSNLWVFGGGTKLTVL | 0.249 | 4e-05 | 161000

These binders were tested against hCD3ε1-27-Fc (assay: monovalent binding affinity (p-1384), method not stated on the sheet).
hCD3ε1-27-Fc, sequence (fusion chain, as listed by the source): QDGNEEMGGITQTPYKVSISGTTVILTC

Binder | Kd [nM]
SP34v52 Fab (Fab, V domains shown) VH: EVQLVESGGGLVQPGGSLRLSCAASGFTFNTYAMNWVRQAPGKGLEWVARIRSKYNNYATYYADSVKDRFTISRDDSKNTLYLQMNSLRAEDTAVYYCVRHGNFGNSYVSWFAYWGQGTLVTVSS VL: EAVVTQEPSLTVSPGGTVTLTCRSSTGAVTTSNYANWVQQKPGQAPRGLIGGTNKRAPWTPARFSGSLLGGKAALTLSGAQPEDEAEYYCALWYSNLWVFGGGTKLTVL | 11
hu38E4.v1 Fab (Fab, V domains shown) VH: EVQLVQSGAEVKKPGASVKVSCKASGFTFTSYYIHWVRQAPGQGLEWIGWIYPENDNTKYNEKFKDRVTITADTSTSTAYLELSSLRSEDTAVYYCARDGYSRYYFDYWGQGTLVTVSS VL: DIVMTQSPDSLAVSLGERATINCKSSQSLLNSRTRKNYLAWYQQKPGQSPKLLIYWTSTRKSGVPDRFSGSGSGTDFTLTISSLQAEDVAVYYCKQSFILRTFGQGTKVEIK | 1

These binders were tested against human CD3 on T cells (human) (UniProt P07766) (assay: Biacore, monovalent KD of the CD3 arm; form of the CD3 antigen not stated on the sheet [panel B]).
human CD3 on T cells (human), sequence (P07766 22-207 limits assumed): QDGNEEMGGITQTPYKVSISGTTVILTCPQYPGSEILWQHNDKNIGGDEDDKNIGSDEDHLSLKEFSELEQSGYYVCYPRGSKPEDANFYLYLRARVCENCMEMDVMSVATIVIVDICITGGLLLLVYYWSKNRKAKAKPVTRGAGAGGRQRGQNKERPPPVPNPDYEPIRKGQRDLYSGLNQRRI

Binder | Kd [nM]
38E4v1 (bispecific antibody, part only; not given: anti-HER2 arm and constant regions, V domains shown, not shown: another chain or arm of the molecule; a dimerising Fc or GST) VH: EVQLVQSGAEVKKPGASVKVSCKASGFTFTSYYIHWVRQAPGQGLEWIGWIYPENDNTKYNEKFKDRVTITADTSTSTAYLELSSLRSEDTAVYYCARDGYSRYYFDYWGQGTLVTVSS VL: DIVMTQSPDSLAVSLGERATINCKSSQSLLNSRTRKNYLAWYQQKPGQSPKLLIYWTSTRKSGVPDRFSGSGSGTDFTLTISSLQAEDVAVYYCKQSFILRTFGQGTKVEIK | 1.3
